Assay [1] has as its target T1, SARS-CoV-2 S1 protein (SARS-CoV-2, UniProt P0DTC2 16-685).
T1 construct: also called SARS-CoV-2 Spike Glycoprotein S1; S1 (subunit 1)
The assay can be described thus: inhibitor ELISA, competitor ACE2. In general terms: In an ELISA, binding on a coated surface is turned into a signal by an enzyme label.

The target in assay [2] is T1, SARS-CoV-2 S1 protein. The assay can be described thus: Carterra SPR, DB format, S1.
The target of assay [3] is T1, SARS-CoV-2 S1 protein. The assay can be described thus: ELISA binding titration on coated antigen.
In assay [4] the target is T1, SARS-CoV-2 S1 protein. Briefly: phage ELISA screen on S1, mean.
For assay [5], the target named is T1, SARS-CoV-2 S1 protein. Briefly: Carterra SPR, Fc capture, S1.
Assay [6] concerns the target T1, SARS-CoV-2 S1 protein. The assay can be described thus: Carterra SPR, direct capture (DC), S1.
Assay [7] has as its target T1, SARS-CoV-2 S1 protein. The assay can be described thus: inhibitor ELISA, competitor ACE2. The source holds these as a separate data set.
For assay [8], the target named is T1, SARS-CoV-2 S1 protein. Briefly: phage ELISA screen on S1, mean. The source holds these as a separate data set.
Assay [9] has as its target T1, SARS-CoV-2 S1 protein.
Assay [10] addresses T1, SARS-CoV-2 S1 protein. The source holds these as a separate data set.

The values below come from patent publication US20210355194A1 (TWIST BIOSCIENCE, published 2021).

Read-outs that look alike come from different tables or passages of the source.

A word on the IC50: it is the concentration needed to halve the response being measured. The term Kd denotes the equilibrium constant for the complex coming apart. Low readings indicate tighter binding, high ones weaker binding. By EC50 is commonly meant the concentration at which the effect is half-maximal. A higher EC50 goes with a less potent agent.

B1: 2-5 (antibody, V domains shown)
VH: EVQLLESGGGLVQPGGSLRLSCAASGFTFSDFAMAWVRQAPGKGLEWVSAISGSGDITYYADSVKGRFTISRDNSKNTLYLQMNSLRAEDTAVYYCAREADGLHSPWHFDLWGQGTLVTVSS
VL: DIQMTQSPSSLSASVGDRVTITCRASQSIHTYLNWYQQKPGKAPKLLIYAASALASGVPSRFSGSGSGTDFTLTISSLQPEDFATYYCQQSYSAPPYTFGQGTKVEIK
notes: also called variant 2-5
With B1, the IC50 in assay [1] worked out at 4.2 nM. In addition, the Kd was 2.8 nM in assay [2] and 1.9 nM in assay [5]. In addition, the response in assay [3] was half-maximal at 0.133 nM (EC50). Moreover, in [4], the “ELISA(Avg)” value came to 30.8 fold over background.

B2: 2-8 (antibody, V domains shown)
VH: EVQLLESGGGLVQPGGSLRLSCAASGFTFSDFAMAWVRQAPGKGLEWVSAISGSGDITYYADSVKGRFTISRDNSKNTLYLQMNSLRAEDTAVYYCAREADGLHSPWHFDLWGQGTLVTVSS
VL: DIQMTQSPSSLSASVGDRVTITCRASQSIDTYLNWYQQKPGKAPKLLIYAASALASGVPSRFSGSGSGTDFTLTISSLQPEDFATYYCQQSYSAPPYTFGQGTKVEIK
notes: also called variant 2-8
With B2, the IC50 in assay [1] was determined as 12.2 nM. In addition, the EC50 in assay [3] was 0.08 nM. Further, the Kd in assay [6] amounted to 33.4 nM; in [5], 52.8 nM. Moreover, the “ELISA(Avg)” value in assay [4] came out at 32.4 fold over background.

B3: 2-2 (antibody, V domains shown)
VH: EVQLLESGGGLVQPGGSLRLSCAASGFTFSRHAMNWVRQAPGKGLEWVSGISGSGDETYYADSVKGRFTISRDNSKNTLYLQMNSLRAEDTAVYYCARDLPASYYDSSGYYWHNGMDVWGQGTLVTVSS
VL: DIQMTQSPSSLSASVGDRVTITCRASQTINTYLNWYQQKPGKAPKLLIYSASTLQSGVPSRFSGSGSGTDFTLTISSLQPEDFATYYCQQSYSTFTFGQGTKVEIK
notes: also called variant 2-2
B3 had an IC50 in [1] of 3.6 nM. The values for the Kd in assay [2] and in assay [5] were 11.7 nM and 58.3 nM, respectively. Moreover, in assay [3], the response was half-maximal at 0.612 nM (EC50). Besides, the “ELISA(Avg)” value in assay [4] was 23.4 fold over background.

B4: 2-16 (antibody, V domains shown)
VH: EVQLLESGGGLVQPGGSLRLSCAASGFTFSSYAMSWVRQAPGKGLEWVSVISGSGGSTYYADSVKGRFTISRDNSKNTLYLQMNSLRAEDTAVYYCAREGYRDYLWYFDLWGQGTLVTVSS
VL: DIQMTQSPSSLSASVGDRVTITCTGTSSDVGSYDLVSWYQQKPGKAPKLLIYEGNKRPSGVPSRFSGSGSGTDFTLTISSLQPEDFATYYCCSYAGSSVVFGQGTKVEIK
notes: also called variant 2-16
Take B4: the IC50 in assay [7] worked out at 433 nM. Besides, the “ELISA(Avg)” value in assay [4] and in [8] was 7.1 fold over background each time.

B5: 2-9 (antibody, V domains shown)
VH: EVQLLESGGGLVQPGGSLRLSCAASGFTFPRYAMSWVRQAPGKGLEWVSTISGSGSTTYYADSVKGRFTISRDNSKNTLYLQMNSLRAEDTAVYYCARLIDAFDIWGQGTLVTVSS
VL: DIQMTQSPSSLSASVGDRVTITCRASQRIGTYLNWYQQKPGKAPKLLIYAASNLEGGVPSRFSGSGSGTDFTLTISSLQPEDFATYYCQQNYSTTWTFGQGTKVEIK
notes: also called variant 2-9
In turn, B5 yielded an EC50 in assay [9] of 12.6 nM. The molecule further returned an IC50 in assay [10] of 23.2 nM.
